The values below come from US20230331848A1 (BIOSION, published 2023).

The target of assay [1] is T1, full length mouse PD-1 expressed on 293F-mouse PD-1 cells (mouse, UniProt Q02242 25-288).
T1 construct: also called cell surface mouse PD-1
T1 sequence: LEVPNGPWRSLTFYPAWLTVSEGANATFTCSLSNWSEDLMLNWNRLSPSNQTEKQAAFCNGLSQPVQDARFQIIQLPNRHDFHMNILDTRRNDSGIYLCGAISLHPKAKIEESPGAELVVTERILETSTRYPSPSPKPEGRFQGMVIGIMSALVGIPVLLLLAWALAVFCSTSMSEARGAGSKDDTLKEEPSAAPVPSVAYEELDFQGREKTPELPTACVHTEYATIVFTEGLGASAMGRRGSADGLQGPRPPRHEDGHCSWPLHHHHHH
Description: cell-based binding FACS on 293F-mouse PD-1 cells (MFI); unit from the axis 'Con of mAb, nM.'. The method, then:
The binding activities of the mouse anti-PD-1 antibodies to mouse PD-1s expressed on cell surface were tested by flow cytometry (FACS), using Biosion in-house prepared 293F-mouse PD-1 cells expressing full length mouse PD-1 (SEQ ID NO.: 27) on cell membrane. The 293F-mouse PD-1 cells were prepared by transfecting 293F cells with a PCMV-T-P plasmid inserted with mouse PD-1 coding sequence between EcoR I and XbaI sites, following the instruction of lipofectamine 3000 transfection reagent (Thermo Fisher).
In specific, the 293F-mouse PD-1 cells and GS-J2/PD-1 cells were respectively harvested from cell culture flasks, washed twice and re-suspended in PBS containing 2% v/v Fetal Bovine Serum (FACS buffer). Then, 2×10⁵ cells per well were incubated in 96 well-plates with 100 μl of the anti-PD1 antibodies or controls at various concentrations for 40 minutes on ice. […] Following an incubation of 40 minutes at 4° C. in dark, cells were washed three times and re-suspended in FACS buffer. Fluorescence was measured using a Becton Dickinson FACS Canto II-HTS equipment and plotted against antibody concentrations. Data was analyzed using GraphPad Prism software and EC₅₀ values were reported.

Assay [2] has as its target T1, full length mouse PD-1 expressed on …. The assay is described as follows: cell-based blocking FACS: 293F-mouse PD-1 cells incubated with antibody, then with mouse PD-L1-hFc (blocked ligand), detected with anti-human IgG Fc-PE; unit from the axis 'Con of mAb, nM.'. The method, then: Briefly, 293F-mouse PD-1 cells were harvested from cell culture flasks, washed twice and re-suspended in PBS containing 2% v/v Fetal Bovine Serum (FACS buffer). Then, 1×10⁵ cells per well in 96 well-plates were incubated in 100 μL of the anti-PD-1 antibodies or controls at various concentrations (starting at 80 nM with a 3-fold serial dilution) in FACS buffer for 40 minutes at 4° C. […] The plates were washed twice with FACS buffer, and then added and incubated for 40 minutes at 4° C. in dark with 100 μl/well R-Phycoerythrin AffiniPure Goat Anti-Human IgG, Fcγ fragment specific (1:1000 dilution in FACS buffer, Cat#:109-115-098, Jackson Immunoresearch). Cells were washed twice and re-suspended in FACS buffer. Fluorescence was measured using a Becton Dickinson FACS Canto II-HTS equipment. Data was analyzed using Graphpad Prism software and IC₅₀ values were reported.

For assay [3], the target named is T2, cynomolgus PD-1-his protein (Cat#:PD1-05223, Acro biosystems Inc.) (cynomolgus, UniProt B0LAJ3 25-170).
T2 construct: Bought protein used in Biacore and indirect ELISA; also called monkey PD-1; Cyno PD-1
The assay is described as follows: indirect ELISA on coated cynomolgus PD-1-his; unit from the axis 'Con of mAb, nM.'. The method, then:
(§1) Briefly, 96-well micro plates were coated with 100 μl 2 μg/ml mouse PD-1-his (Cat#:50124-M08H, Sino Biological Inc) or 2 μg,/ml cynomolgus PD-1-his (Cat#:PD1-05223, Acro biosystems Inc.) in carbonate/bicarbonate buffer (pH 9.6) for 2 hours at 37° C. Plates were washed once with wash buffer (PBST, PBS+0.05% Tween-20) and then blocked with 200 μl blocking buffer (5% w/v non-fatty milk in PBST) for 2 hours at 37° C. […] ELISA plates were washed 4 times and incubated with Peroxidase AffiniPure goat anti-mouse IgG, Fcγ Fragment Specific (1:5000 dilution in PBST buffer, Cat#:115-035-071, Jackson ImmunoResearch Laboratories, Inc., 100 μl/well) or Peroxidase AffiniPure F(ab′)₂ Fragment Goat Anti-Human IgG, Fcγ fragment specific (Cat#:109-036-098, Jackson ImmunoResearch, for the controls) for 40 minutes at 37° C. After a final wash, plates were incubated with 100 μl/well TMB (Cat#:TMB-S-002, innoreagents) at room temperature. The reaction was stopped 3-10 minutes later with 50 μl/well 1M H₂SO₄, and the absorbance was read on a microplate reader using dual wavelength mode with 450 nm for TMB and 630 nm as the reference wavelength. Then the OD (450-630) values were plotted against antibody concentrations. Data was analyzed using GraphPad Prism software and EC₅₀ values were reported.
On the technique in general: In an ELISA, binding on a coated surface is turned into a signal by an enzyme label.

Assay [4] deals with T3, in house made human PD-1-Fc protein (human, biotin-labeled (sites not given)).
T3 construct: also called biotin-labeled human PD-1-Fc
Description: competitive ELISA: antibody pre-mixed with biotin-labeled human PD-1-Fc, added to coated human PD-L1-Fc (blocked ligand); unit from the axis 'Con of mAb, nM.'. The method, then:
The activities of the anti-PD1 antibodies of the disclosure to block PD-L1-PD1 binding were measured in a competitive ELISA.
Briefly, 100 μl human PD-L1-Fc protein (prepared in-house with SEQ ID NO: 28) at 2 μg/mL in carbonate/bicarbonate buffer (pH 9.6) was coated on 96-well micro plates overnight at 4° C., Plates were washed with wash buffer (PBS+0.05% w/v Tween-20, PBST), and blocked with 5% w/v non-fatty milk in PBST for 2 hours at 37° C. […] After incubation at 37° C. for 40 minutes, plates were washed using wash buffer. […] Plates were washed again using wash buffer. Finally, TMB was added and the reaction was stopped using 1M H₂SO₄. The absorbance was read on a microplate reader using dual wavelength mode with 450 nm for TMB and 630 nm as the reference wavelength, then the OD (450-630) values were plotted against antibody concentrations. Data was analyzed using Graphpad Prism software and IC₅₀ values were reported.

In assay [5] the target is T4, recombinant mouse PD-1-his protein (Cat#:50124-M08H, Sino Biological Inc) (mouse, UniProt Q02242 25-167).
T4 construct: Bought protein used in Biacore and indirect ELISA; not shown: his tag
T4 sequence (looked up): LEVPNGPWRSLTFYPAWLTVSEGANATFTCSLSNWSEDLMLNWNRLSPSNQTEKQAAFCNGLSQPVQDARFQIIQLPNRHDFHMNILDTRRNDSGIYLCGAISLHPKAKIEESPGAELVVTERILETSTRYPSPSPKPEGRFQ
The assay is described as follows: indirect ELISA on coated mouse PD-1-his; unit from the axis 'Con of mAb, nM.'. The method, then: as §1

Numbering of substitutions follows the chain as printed.

Usually EC50 stands for the midpoint of the concentration-response curve. Broadly, the IC50 is the concentration needed to halve the response being measured. High values mean a need for much substance, low ones inhibition by little substance.

B1: mouse anti-PD-1 monoclonal antibody E1A9C8A7 (antibody, V domains shown)
VH: QVQLQQSGAEVVRPGVSVRISCKGSGYTFSDYVMHWMKQSHGESLEWIGVISTYHIPAVYNQKFKGKATMTVDKSSSTVYLELARLTSEDSAIYYCAREVYGDSYYFDVWGAGTTVTVSS
VL: DVLMTQIPLSLPVSLGDQVSISCRSSQSIVHSNGNTYLEWYLQKPGQSPKLLIYKVSNRFSGVPDRFSGSGSGTDFTLKISRVEAEDLGVYYCFQGSHVPYTFGGGTKLEIK
notes: Hybridoma-derived mouse mAb purified on Protein A; also called Mouse E1A9C8A7
B1: the figures for the EC50 in assay [1], in assay [3] and in assay [5] were 1.27 nM, 0.121 nM and 0.185 nM, respectively. Besides, the IC50 worked out at 6.86 nM in assay [2] and 0.45 nM in assay [4].

B2: mouse anti-PD-1 monoclonal antibody E2G4E10B7 (antibody, V domains shown)
VH: QVQLQQSGAELVRPGVSVKISCKGSGYTFTDYVMHWVRQSHAKSLEWIGVISTHFGDGVYNQKFKGKATMTVDKSSSTAYMELARLTSEDSAIYYCAREVYGDSWYFDVWGAGTTVTVSS
VL: B1 VL with I7T, V19A, I29L, N33D, V83L
notes: Hybridoma-derived mouse mAb; also called Mouse E2G4E10B7
In the case of B2, the EC50 in assay [1] was 0.87 nM; in assay [3] it was 0.166 nM; in assay [5] it was 0.34 nM. Moreover, the concentration for half-maximal inhibition (IC50) in assay [2] is 2.49 nM; in assay [4], 0.428 nM.
